# Results: the supplement of paper PMC10126150
# ± gives the standard deviation of the averaged measurements.
# System: ATP
# Experiment: switch fluorescence ratio, 500 uM ATP over buffer (Cy3 cluster intensity, sum of 5 cycles each) (fold (ratio)); higher = stronger signal-on switching upon ATP binding; sequences stand for … in TCGTCGGCAGCGTCAGATGTGTATAAGAGACAGTTTTTTTTTTTTTTTTTTTTTTTTT…TC
# Conditions: aptamer strand: ATP DNA aptamer (quencher-CACCTGGGGGAGTATTGCGGAGGAAGG + anchor), 100 nM annealed; ATP concentration: 500 uM
# Summary of the method: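 Values give the fluorescence ratio for each switch-domain sequence, averaged from per-cluster ratios of summed target-cycle to summed buffer-cycle Cy3 intensity. The Cy3-labelled switching-strand clusters sat on a modified Illumina MiSeq flow-cell, were annealed to 100 nM quencher-labelled ATP aptamer, and were imaged in selection buffer, then after 15 min with 500 uM ATP at 22 °C. Five cycles ran with NaOH stripping and re-annealing between them, and clusters outside 100-1000 RFU were excluded.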
# 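Also: ATP exposure 15 min at 22 °C before imaging.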
row,Sequence,switch fluorescence ratio
1,TTAATTATCT,1.01 ± 0.051
2,TTTTATGTTT,1 ± 0.019
3,AATTGGAGGA,0.996 ± 0.033
4,TTAGTTCGGG,0.965 ± 0.023
5,CAGGGCGC,1.02 ± 0.088
6,CAGGTCTTAA,0.9719 ± 0.0054
7,TCGAATTTGT,0.99 ± 0.03
8,TTTGATTGGA,1.02 ± 0.011
9,TGCTCCTGAT,1.02 ± 0.055
10,TTGAGGGAAT,0.992 ± 0.033
11,TAGGAAGATG,1.02 ± 0.1
12,TTGGGGTCTG,1.02 ± 0.023
13,TCTTTGGTTT,1.17 ± 0.25
14,CGGAGGCGTT,0.986 ± 0.041
15,TTTGGAAAGT,0.991 ± 0.025
16,AACGATCTTT,0.9979 ± 0.0084
17,TTTCCGGTGC,1.7 ± 0.13
18,ACCTCTTATA,1.05 ± 0.014
19,TGTGTTATAC,1.05 ± 0.043
20,GATATGCTGG,0.987 ± 0.018
21,CGGTTGGGAG,1.019 ± 0.0064
22,GACGACTATT,1.13 ± 0.016
23,GGTACAGTTA,0.985 ± 0.016

row,Sequence,switch fluorescence ratio
1,CAGGTTGCCT,0.999 ± 0.046
2,CTAACGCGCA,1.11 ± 0.0043
3,ATGGACATAC,1.22 ± 0.098
4,GTTTATAGGT,0.9815 ± 0.0077
5,ACGGTACTGT,1.4 ± 0.045
6,TTTTGTGGCT,0.98 ± 0.02
7,TTTTAACCCT,0.998 ± 0.013
8,TGTTGTGCAC,1.02 ± 0.023
9,AGGGACTTTA,1.0332 ± 0.00011
10,AATAGGGGCA,0.949 ± 0.017
11,GCTCTTTGAA,1.01 ± 0.012
12,AGACGGAACT,1.08 ± 0.025
13,CGTTGATGCT,1.01 ± 0.02
14,TTTATTTGGT,1.03 ± 0.041
15,AAGAGGACGA,1.01 ± 0.028
16,ACGCCCTCCC,2.02 ± 1.2
17,TACGTAATCT,1.27 ± 0.014
18,TTCTGTTGGT,1.02 ± 0.087
19,TGTGAGCAGG,1.15 ± 0.044
20,TCATTTCTGC,1.01 ± 0.037
21,GGGTCGGGAA,1.006 ± 0.0032
22,GGGACTTGGG,0.998 ± 0.037
23,TAGAGTTTGG,1 ± 0.045

row,Sequence,switch fluorescence ratio
1,TTAACGGTCG,1.02 ± 0.072
2,AATGCAGATT,1.031 ± 0.008
3,TAGCAGTTGG,0.988 ± 0.02
4,AAAAGGGGAA,1.02 ± 0.025
5,TTATAGGGGA,0.998 ± 0.082
6,GGGGGTTCTA,1.02 ± 0.011
7,GGAGTTTGAG,1 ± 0.0095
8,CCGTTGATGT,1.014 ± 0.002
9,GGGTTAAGGC,1.01 ± 0.062
10,GTTGGGGTAT,1.06 ± 0.11
11,AATTGGGCAG,0.9971 ± 0.0038
12,TTAAACCGCT,1.08 ± 0.053
13,CTGGTCCGGC,1.01 ± 0.078
14,GCATTATGTT,0.987 ± 0.044
15,GGGTTCGGGA,0.991 ± 0.027
16,TCACGGATGT,1.04 ± 0.012
17,TCATTGGTT,0.985 ± 0.021
18,ACTATTAAT,1.024 ± 0.0063
19,GCTGTAATTT,0.998 ± 0.056
20,ATGGGGGTTC,0.992 ± 0.023
21,GGATGTTTAG,1.02 ± 0.021
22,AGGGCACGGT,0.983 ± 0.036
23,ATGATGTAAT,0.995 ± 0.051

row,Sequence,switch fluorescence ratio
1,TTGAAGGATG,0.997 ± 0.029
2,AAAAATATGC,0.996 ± 0.017
3,CGGTAGTCAG,0.9983 ± 0.008
4,TTTGAGGTGG,1.03 ± 0.043
5,TTTATCGCAG,0.994 ± 0.039
6,GCCGCAGGTC,1.23 ± 0.083
7,TTAAGGCCAC,1.034 ± 0.0055
8,TTGCTTTTGT,1.02 ± 0.025
9,CCATGGGGGT,1.16 ± 0.14
10,GGCAGATTTT,0.9986 ± 0.006
11,AAACTGGGGG,1.012 ± 0.0032
12,AGGGGCTCCG,1.02 ± 0.036
13,TGTATTCAGG,1.01 ± 0.056
14,GACGTTTAAT,1.021 ± 0.0057
15,AGTGGAATGC,1.12 ± 0.032
16,CAAAACAGGT,1.01 ± 0.032
17,TAGTGACAGC,1.04 ± 0.014
18,CGAGGGCGGG,0.999 ± 0.016
19,TATTCAGCTA,1.07 ± 0.099
20,CTTGTTGCCG,1.01 ± 0.013
21,GGGCGTTTCG,1.005 ± 0.0089
22,TTTGTTAACG,0.99 ± 0.013
23,GTTGTCAGTA,0.9836 ± 0.005

row,Sequence,switch fluorescence ratio
1,AAGTTAGACC,1.026 ± 0.0041
2,CATGCTTTGT,0.9924 ± 0.0069
3,AAATATGAGC,0.993 ± 0.033
4,ATAATTTAAT,0.9986 ± 0.0074
5,AGTGGGACGC,1 ± 0.044
6,GAAGGGTTGG,0.999 ± 0.014
7,TACTTCCTCC,3.8 ± 0.44
8,TATAGGTGCG,0.9891 ± 0.0049
9,TTGCACGGTC,1.03 ± 0.085
10,GGGCATGGAA,0.969 ± 0.018
11,CTTACATTGC,1.05 ± 0.029
12,TCTAGCACGG,1.06 ± 0.023
13,TGCATTGGGA,1.02 ± 0.043
14,TCATAATTGG,1.005 ± 0.0045
15,AGGTTCTATT,0.9864 ± 0.0089
16,TAGGGGGCTT,1.01 ± 0.018
17,ATAGGTATCT,0.988 ± 0.019
18,GGGAGCTGTT,1.06 ± 0.11
19,CGGTGATTGA,1.004 ± 0.0023
20,ACGGATTGTG,0.971 ± 0.0099
21,AAGGCATCAG,0.9915 ± 0.0045
22,AATAGGGGGA,1.01 ± 0.034
23,TCAATCATAT,0.982 ± 0.033

row,Sequence,switch fluorescence ratio
1,TCACGTTATG,1.11 ± 0.026
2,ATAATCACCT,1.23 ± 0.019
3,GCTGATATGG,1.02 ± 0.054
4,TGTTACTCCT,1.09 ± 0.026
5,TGGGCAACCG,1.02 ± 0.065
6,ATTAGAGTGT,0.965 ± 0.04
7,GGGGTGGGTC,0.974 ± 0.012
8,CATTTAGTTG,0.985 ± 0.042
9,TTCAATTTAG,0.9954 ± 0.0042
10,GGGTTTTTCC,1.1 ± 0.18
11,AGAGAAAGGG,1.02 ± 0.035
12,CGTACCTGCG,1.06 ± 0.042
13,GGGTGGGATA,1.02 ± 0.044
14,TTTTAAGAT,1.02 ± 0.029
15,TTGAAATCGC,1.01 ± 0.041
16,TGGTGTCGTG,0.999 ± 0.034
17,TTTACCCACT,1.46 ± 0.073
18,CTTAGATGTT,0.963 ± 0.024
19,AAGCCTTAAA,1.06 ± 0.011
20,GCACGTGCAG,0.9955 ± 0.0041
21,TAGGGAGGA,0.98 ± 0.022
22,GGAGGATTGG,0.958 ± 0.017
23,TCCATACAAG,0.983 ± 0.055

row,Sequence,switch fluorescence ratio
1,TATAAGTAGT,0.956 ± 0.011
2,TCGTGAGCGG,0.996 ± 0.034
3,AGGAGGGGGG,1.01 ± 0.039
4,ACCAAGGGCT,0.996 ± 0.034
5,GCGGGATCCG,1.06 ± 0.083
6,TTTCTTTGGT,1.016 ± 0.0075
7,CGAACCTGGA,1.37 ± 0.076
8,AAACTGCTCG,1.04 ± 0.064
9,CCGATGTGGT,1.57 ± 0.039
10,GCTGATTAG,0.954 ± 0.011
11,TGTTATAAAT,0.999 ± 0.032
12,TTTTGTGTGC,1.02 ± 0.022
13,AGCGAGTGGC,0.991 ± 0.03
14,CTGGGGGTA,0.9889 ± 0.0083
15,AATCTACGCA,1.44 ± 0.32
16,ACAGAAGTCT,1.03 ± 0.096
17,TCGGGTAAAG,0.9947 ± 0.0053
18,GTTGGAGTGT,0.9511 ± 0.0068
19,AAGAAACTTC,1.007 ± 0.0024
